Common to all, as to type: biochemical
Test [1] in a line: PPi production from dUTP (dUTPase activity), Sigma Enzymatic Determination of Pyrophosphate kit. As for the experimental part: In experiments to investigate whether PPi is formed during the reaction, 900 or 1800 ng of PEF was incubated with 10 mM dUTP in 1× cloned Pfu polymerase buffer for 1 hour at 72° C. The presence of PPi in the reaction mixture was then quantified using Sigma's Enzymatic Determination of Pyrophosphate kit (Sigma Product No. P7275). The kit utilizes a coupled enzyme system whereby two moles of NADH are oxidized to NAD^+ for each mole of PPi present in the reaction mixture. The oxidation of NADH is monitored spectrophotometrically at 340 nm. […] The reactions that contained 1800 ng of PEF produced twice as much PPi as those that contained 900 ng of PEF.
The temperature optimum (Topt) for the generation of PPi from dUTP was measured by incubating mixtures of dUTP and native PEF at temperatures ranging from 73° C. to 99° C. PPi production by native PEF increased steadily over this temperature range and was highest at 99° C. […]
The enzyme activity of three different preparations of S200-purified native PEF was measured at 85° C. Protein concentrations were determined by both Bradford and by amino acid analysis. Shown below is a summary of the enzyme activity and specific activity (protein concentration determined by Bradford or AAA as indicated) of S200-purified native PEF. […]

For test [2], the target named is T1, cloned Pfu DNA polymerase (Pyrococcus furiosus, UniProt P61875).
T1 sequence (P61875 1-775): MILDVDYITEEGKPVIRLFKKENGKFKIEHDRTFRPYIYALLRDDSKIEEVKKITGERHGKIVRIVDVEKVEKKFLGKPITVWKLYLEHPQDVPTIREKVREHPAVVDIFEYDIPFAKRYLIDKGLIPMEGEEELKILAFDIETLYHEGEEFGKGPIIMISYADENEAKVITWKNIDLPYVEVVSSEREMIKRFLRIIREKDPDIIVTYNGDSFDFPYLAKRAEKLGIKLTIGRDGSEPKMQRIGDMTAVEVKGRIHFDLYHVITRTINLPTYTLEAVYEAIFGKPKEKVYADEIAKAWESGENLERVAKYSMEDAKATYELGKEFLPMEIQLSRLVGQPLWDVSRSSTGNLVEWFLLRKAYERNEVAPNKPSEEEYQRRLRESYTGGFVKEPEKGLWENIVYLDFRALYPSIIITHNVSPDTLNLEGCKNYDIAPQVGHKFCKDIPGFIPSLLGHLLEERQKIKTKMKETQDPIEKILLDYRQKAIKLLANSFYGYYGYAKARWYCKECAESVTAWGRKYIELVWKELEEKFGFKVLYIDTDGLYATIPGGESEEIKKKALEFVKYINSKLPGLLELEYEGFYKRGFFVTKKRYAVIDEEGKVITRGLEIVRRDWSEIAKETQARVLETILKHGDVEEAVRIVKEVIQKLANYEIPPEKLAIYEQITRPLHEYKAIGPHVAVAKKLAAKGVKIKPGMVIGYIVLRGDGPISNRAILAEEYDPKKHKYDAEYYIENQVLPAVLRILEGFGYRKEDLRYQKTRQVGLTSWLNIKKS
Nature of the test: 6.2 kb primer-template PCR enhancing assay. The method, then: One embodiment of an assay used to screen for PEFs, in this case from Pyrococcus furiosus, involved amplifying a 6.2 kb target from transgenic mouse DNA (6.2 kb primer-template assay). A master PCR cocktail was prepared consisting of: 200 μM each dNTP, 2 μg/ml primer F432-21 (5′-CTA-TTG-AGT-ACG-AAC-GCC-ATC) (SEQ ID NO.: 62), 2 μg/ml primer R6656-20 (GTC-ACG-CTT-GCT-CCA-CTC-CG) (SEQ ID NO: 63), 2.5 μg/ml λAA742 DNA (transgenic mouse DNA having 40 copies of a lambda phage DNA shuttle vector), 1× cloned Pfu DNA polymerase PCR buffer (10 mM KCl, 10 mM (NH4)2SO4, 20 mM Tris-HCl (pH 8.8), 2 mM MgSO4, 0.1% (v/v) Triton X-100, and 100 μg/ml BSA), and 25 U/ml cloned Pfu DNA polymerase. Samples were diluted in 1× cloned Pfu DNA polymerase PCR buffer, and 1 μl of each diluted sample was added to 24 μl of the PCR cocktail. PCR amplifications were conducted on the RoboCycler 96 Temperature Cycler (Stratagene), using the following conditions: 96° C. for 45 s (1 cycle)/96° C. for 45 s; 60° C. for 45 s; 72° C. for 14 min. (35 cycles)/72° C. for 10 min. (1 cycle). PCR products (10 μl/lane) are run out on 1% agarose gels and PCR product bands visualized by ethidium bromide staining. […] When PCR enhancement is due to the presence of PEFs, rather than contaminating endogenous DNA polymerase activity, amplifications performed in the absence of […] yield no PCR product. Moreover, PCR amplifications performed in the absence of exogenous DNA template should yield no PCR product when the PEF sample lacks contaminating target DNA.

The target in a further test is T2, Pfu DNA polymerase (Pyrococcus furiosus, UniProt P61875).
T2 sequence (P61875 1-775): T1 sequence (P61875 1-775)
Kind of test: 0.9 kb α1-antitrypsin PCR in absence or presence of dUTP. As for the experimental part:
A relatively small (0.9 kb) fragment of the human α1-antitrypsin gene was amplified in the absence or presence of dUTP. PCR reaction mixtures contained the following (in a 100 μl volume): 1× Cloned Pfu polymerase buffer; 200 μM each, dCTP, dGTP, dATP; 200 ng oligo F91-23 (100 ng/μl); 200 ng oligo R980-23 (100 ng/μl); 125 ng Human genomic DNA; 2.5 units Pfu DNA polymerase; 200 μM total of (dTTP and dUTP) or (dTTP+PEF generated dUMP).
PCR cycling was carried out as follows: 95° C. for 1 minute (1 cycle); 95° C. for 1 minute—58° C. for 1 minute—72° C. for 2 minutes (30 cycles).
Seven ng of PEF can reverse the inhibition caused by as much as 20 μM dUTP (data not shown). The preferred amount of PEF or P45 used in a particular reaction can be optimized according to the principles provided here or by methods for quantifying amplification reactions known in the art.

Bounds are passed on as bounds.

B1: PEF: polymerase enhancing factor complex purified from Pyrococcus furiosus; predominant components P50 and P45 (protein)
chain 1: MLHHVKLIYATKSRKLVGKKIVXXXPGSIAALDVKACEGLIRHGAEVHAVMSEAATKIIHPYAWNLPTGNPVITEITGFIEHVELAGEHENKADLILVCPATANTISKIACGIDDTPVTTVVTTAFPHIPIMIAPAMHETMYRHPIVRENIERLKKLGVEFIGPRIEEGRAKVASIDEIVYRVIKKLHKKTLEGKRVLVTAGATREYIDPIRFITNASSGKMGVALAEEADFRGAVTLIRTKGSVKAFRIRKIKLKVETVEEMLSAIENELRSKKYDVVIMAAAVSDFRPKIKAEGKIKSGRSITIELVPXNPKIIDRIKEIQPNVFLVGFKAETSKEKLIEEGKRQIERAKADLVVGNTLEAFGSEENQVVLIGRDFTKELPKMKKRELAERIWDEIEKXLS
chain 2: MLLPDWKIRKEILIEPFSEESLQPAGYDLRVGREAFVKGKLIDVEKEGKVVIPPREYALILTLERIKLPDDVMGDMKIRSSLAREGVIGSFAWVDPGWDGNLTLMLYNASNEPVELRYGERFVQIAFIRLEGPARNPYRGNYQGSTRLAFSKRKKL
modifications: not fully specified; X: residue not identified in the source
notes: polymerase enhancing factor complex purified from Pyrococcus furiosus; predominant components P50 and P45
Turning to B1, the “PPi production from dUTP (in words)” value in test [1] is “clearly established”. Moreover, the “temperature optimum (Topt) for the generation of PPi from dUTP” value in test [1] (tested from 73° C. to 99° C.) is above 99 °C. The “excess PEF giving lower PCR product yield” value in test [2] was at least 900 ng/100 μl. Moreover, the “PEF concentration range enhancing performance of Pfu DNA polymerase in PCR” value in test [2] (10,000-fold range) was 0.09-900 ng/100 μl. Also, the “very low PEF concentration giving lower PCR product yield” value in test [2] (listed as substantially homogeneous PEF) is below 9 pg/100 μl. Moreover, the “prevention of dUTP inhibition” value in the test with Pfu DNA polymerase (added to PCR reactions containing dUTP) is recorded as “completely prevented”. The “dUTP concentration whose inhibition is reversed” value with Pfu DNA polymerase (seven ng of PEF, as much as, data not shown) was 20 µM.

The record behind these values is US7943358B2, “Polymerase enhancing factor (PEF) extracts, PEF protein complexes, isolated PEF protein, and methods for purifying and identifying” (Agilent Technologies, Inc., priority 1997, dated 2011).
